These results are taken from the RNAGym collection of RNA variant scans (doi:10.1093/molbev/msab373).

The labels stand for the following.
B1: Azoarcus group I ribozyme (parent)
chain: GUGCCUUGCGCCGGGAAACCACGCAAGGGAUGGUGUCAAAUUCGGCGAAACCUAAGCGCCCGCCCGGGCGUAUGGCAACGCCGAGCCAAGCUUCGGCGCCUGCGCCGAUGAAGGUGUAGAGACUAGACGGCACCCACCUAAGGCAAACGCUAUGGUGAAGGCAUAGUCCAGGGAGUGGCGAAAGUCACACAAACCGG

The variants in this data set derive from B1. The data set can be described thus: reverse-splicing fitness (ratio to wild type); higher = more active; in vitro selection; Mg2+ level not given. An outline of the steps: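 An in vitro group I ribozyme library with randomized positions was T7-transcribed and gel-purified. In triplicate, 10 pmol RNA in EPPS pH 7.5 was reacted with 50 pmoles of a 30-nt RNA substrate for 1 h at 37 °C across several added MgCl2 levels (1–48 mM), then stopped with EDTA. Products were reverse transcribed from a substrate-complementary primer, PCR-amplified and sequenced (HiSeq 4000). Fitness is a variant's read proportion after selection over that before, normalised to wild type.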
As for C82U A111G A145G C150U U176A, the reverse-splicing fitness came to 0.135. For the variant C82U A111G A145G C150U U176C, the reverse-splicing fitness came out at 0.193. As for C82U A111G C169G U176C, the reverse-splicing fitness was determined as 0.0183. On to C82U A111G C169G U176A, for which the reverse-splicing fitness was determined as 0.0159. In the case of C82U A111G C169G U176G, the reverse-splicing fitness turned out to be 0.00463. Turning to C82U A111U A120C A145G C150A C169U U176G, the reverse-splicing fitness is 0.00615. Under C82U A111U A120C A145G C150A C169U U176A stands 0.0148; under C82U A111U A120C A145G C150A C169U U176C, 0.0167; under C82U A111U A120C A145G C169G, 0.00779. Consider C82U A111U A120C A145G C169A, for which the reverse-splicing fitness is 0.0083. C82U A111U A120C A145G C169U: the reverse-splicing fitness stood at 0.0112. Consider C82U A111G A145U C150G C169G U176G, for which the reverse-splicing fitness came to 0.00515. For the variant C82U A111G A145U C150G C169G U176C, the reverse-splicing fitness was 0.00527. Under C82U A111G A145U C150G C169G U176A stands 0.00668; under C82U A111G C150G C169U, 0.00811; under C82U A111G C150G C169A, 0.00812.

For the variant C82U A111G C150G C169G, the reverse-splicing fitness worked out at 0.00675. With C82U A111G A145U C169A, the reverse-splicing fitness was determined as 0.00645. In the case of C82U A111G A145U C169U it was 0.0102; in that of C82U A111G A145U C169G, 0.00731.

Regarding C82U A111U A120C A145C C150G U176A, the reverse-splicing fitness was found to be 0.00494. As for C82U A111U A120C A145C C150G U176G, the reverse-splicing fitness was 0.00237. In the case of C82U A111U A120C A145C C150G U176C it was 0.00663; in that of C82U A111U A120C A145C C150G C169G, 0.00637; in that of C82U A111U A120C A145C C150G C169U, 0.00848. Regarding C82U A111U A120C A145C C150G C169A, the reverse-splicing fitness turned out to be 0.00832. As to C82U A111U A120C, the reverse-splicing fitness is 0.0288. On to C82U A111U A120C A145G C150U C169A U176C, for which the reverse-splicing fitness worked out at 0.0136. Turning to C82U A111U A120C A145G C150U C169A U176G, the reverse-splicing fitness amounted to 0.00576. Regarding C82U A111U A120C A145G C150U C169A U176A, the reverse-splicing fitness came to 0.017. Consider C82U A111G A145U C150G U176G, for which the reverse-splicing fitness amounted to 0.00442.

Turning to C82U A111G A145U C150G U176A, the reverse-splicing fitness is 0.0137. In the case of C82U A111G A145U C150G U176C it was 0.0255; in that of C82U A111U A120C A145C C150A C169U U176G, 0.00541; in that of C82U A111U A120C A145C C150A C169U U176A, 0.0149.

As for C82U A111U A120C A145C C150A C169U U176C, the reverse-splicing fitness came to 0.0112.

Take C82U A111G A145U C150U C169A U176G: the reverse-splicing fitness was found to be 0.00546. In the case of C82U A111G A145U C150U C169A U176C it was 0.00733; in that of C82U A111G A145U C150U C169A U176A, 0.0115; in that of C82U A111G A145U C169G U176C, 0.00876. Consider C82U A111G A145U C169G U176A, for which the reverse-splicing fitness came out at 0.00999. C82U A111G A145U C169G U176G: the reverse-splicing fitness was determined as 0.00474. With C82U A111U A120C A145G C150G C169U U176C, the reverse-splicing fitness worked out at 0.0128. Turning to C82U A111U A120C A145G C150G C169U U176G, the reverse-splicing fitness came out at 0.00719. In the case of C82U A111U A120C A145G C150G C169U U176A, the reverse-splicing fitness came to 0.0113. As for C82U A111G A145G C150U C169A U176A, the reverse-splicing fitness is 0.0161.

In the case of C82U A111G A145G C150U C169A U176G, the reverse-splicing fitness worked out at 0.00534. Consider C82U A111G A145G C150U C169A U176C, for which the reverse-splicing fitness amounted to 0.0167. As for C82U A111U A120C A145G C169U U176G, the reverse-splicing fitness was determined as 0.00475.

On to C82U A111U A120C A145G C169U U176A, for which the reverse-splicing fitness came to 0.0163. Under C82U A111U A120C A145G C169U U176C stands 0.0162.

Regarding C82U A111U A120C A145G C150A C169U, the reverse-splicing fitness was 0.0104.

As for C82U A111U A120C A145G C150A C169A, the reverse-splicing fitness stood at 0.0103. C82U A111U A120C A145G C150A C169G: the reverse-splicing fitness is 0.00791. As to C82U A111G A145U C150A C169G U176G, the reverse-splicing fitness came out at 0.00518. For C82U A111G A145U C150A C169G U176C, the reverse-splicing fitness is 0.0113. Take C82U A111G A145U C150A C169G U176A: the reverse-splicing fitness was 0.0131. As for C82U A111U A120C A145U C150A C169G U176C, the reverse-splicing fitness was determined as 0.0124. Under C82U A111U A120C A145U C150A C169G U176G stands 0.00527; under C82U A111U A120C A145U C150A C169G U176A, 0.0124. With C82U A111G A145U C150A U176C, the reverse-splicing fitness is 0.0305. Under C82U A111G A145U C150A U176A stands 0.0234; under C82U A111G A145U C150A U176G, 0.0097. With C82U A111G A145G C169G U176G, the reverse-splicing fitness amounted to 0.00438. For C82U A111G A145G C169G U176A, the reverse-splicing fitness came out at 0.02.

In the case of C82U A111G A145G C169G U176C, the reverse-splicing fitness is 0.0236. Under C82U A111U A120C A145G C150U U176G stands 0.00597; under C82U A111U A120C A145G C150U U176A, 0.0116; under C82U A111U A120C A145G C150U U176C, 0.0214. Turning to C82U A111G A145U C150U, the reverse-splicing fitness was 0.276. With C82U A111G A145U C150G, the reverse-splicing fitness amounted to 0.0379. Consider C82U A111G A145U C150A, for which the reverse-splicing fitness came to 0.0335.

For the variant C82U A111U A120C A145C C150U C169A U176A, the reverse-splicing fitness was 0.0088. Take C82U A111U A120C A145C C150U C169A U176G: the reverse-splicing fitness is 0.00569.

With C82U A111U A120C A145C C150U C169A U176C, the reverse-splicing fitness came to 0.00517. Consider C82U A111U A120C A145U C150A U176G, for which the reverse-splicing fitness is 0.0048.

As for C82U A111U A120C A145U C150A U176C, the reverse-splicing fitness stood at 0.00963. For C82U A111U A120C A145U C150A U176A, the reverse-splicing fitness came to 0.0115. Take C82U A111G C150A C169A U176C: the reverse-splicing fitness stood at 0.0195.

Regarding C82U A111G C150A C169A U176G, the reverse-splicing fitness came to 0.00533. With C82U A111G C150A C169A U176A, the reverse-splicing fitness came to 0.0183. As for C82U A111U A120C A145U C150G C169A, the reverse-splicing fitness is 0.00868. On to C82U A111U A120C A145U C150G C169U, for which the reverse-splicing fitness is 0.00819.
